# Data as given in patent publication US6803203B1, “DNA-PK assay” (Brookhaven Science Associates, priority 1993, dated 2004).
# No end group written: not given here.
# What was measured:
# Format in all cases: biochemical
# DNA-PK [1] = molecular target: T1, DNA-PK (Homo sapiens, UniProt P78527); experiment: Poorer substrate peptides added to (SEQ ID NO: 8) phosphorylation assays; details: peptide up to 250 μM; (SEQ ID NO: 8) at 100 μM
# T1 construct: DNA-PK was purified from HeLa cells; endogenous in cells; host or cells: HeLa S3 cells; the endogenous enzyme was purified in house by chromatography
# DNA-PK [2] = experiment: DNA-PK activity in extracts of mouse cell lines; details: peptide 0.2 mM; for Specific Activity + DNA: + calf thymus DNA 10 μg/ml; for Specific Activity − DNA: no added DNA
# Protocol: (§1) Extracts of additional primate and rodent cells were tested for the presence of DNA-PK activity in accordance with the method of the present invention. The DNA-PK activity was determined using the methods described in Examples 1, 4 and 5 for seven human cell lines, two African green monkey kidney lines, and six rodent cell lines.
# (§2) Extracts were prepared essentially as described in Example 10. Cells were lysed by freezing and thawing in hypotonic buffer; soluble (S10) “cytoplasmic” and insoluble in (P10) “nuclear” fractions were made by centrifuging lysates at 10,000×g for 10 min. The insoluble fraction was extracted with buffer containing 0.5 M KCl, which releases any DNA-PK that is bound to DNA. After centrifugation of the salt-washed pellet fraction, which removed the remaining insoluble material, the salt extract (P10S) was diluted and assayed as previously described.
# (§3) Protein concentrations, determined using the Bio-Rad dye binding assay, were between 0.3 and 6 mg/ml. Extracts were incubated at 30° C. for 10 min with each peptide at 0.2 mM in the absence of added DNA (−DNA) or with 10 μg/ml calf thymus DNA (+DNA). After incubation the reaction mixtures were acidified with an equal volume of 30% acetic acid and spotted on to Whatman P-81 phosphocellulose paper (Whatman, Inc., Clifton, N.J.). The filters then were washed extensively in 15% acetic acid before the adsorbed radioactivity was quantitated as described in Example 5.
# (§4) The amount of phosphate incorporated was calculated from the specific activity of the ATP. The rate of phosphate incorporation into the Ser-Gln-Glu peptide (Table 1) (SEQ ID NO: 11) in the presence of calf thymus DNA was approximately linear throughout the 10 minute reaction incubation period. Parallel assays were performed without added peptide, and these background values were subtracted to produce the activities that are shown in Table 3. Background values varied but, in all cases, were less than 0.2 nmol/min/mg (a few percent of the activity present in human cells). The specific activities were calculated from the total activity in the two fractions divided by the total protein in the two fractions. The percent of total DNA-PK activity in the S10 and P10S fractions was determined with peptide (SEQ ID NO: 11) in the presence of added calf thymus DNA. Extracts without substantial DNA-PK activity were examined for their ability to inhibit purified DNA-PK. Inhibitory activity was not detected.
# DNA-PK [3] = molecular target: T1, DNA-PK; experiment: DNA-PK activity in extracts of human cell lines; details: for Specific Activity + DNA: + calf thymus DNA 10 μg/ml; for Specific Activity + DNA / Specific Activity − DNA: peptide 0.2 mM; for Specific Activity − DNA: no added DNA
# Protocol: as §1, §2, §3, §4
sequence,measurement,setting,value
EPPLSEQAFADLWKK [SEQ ID NO: 20],inhibition of phosphorylation of (SEQ ID NO: 8),DNA-PK [1],None of these peptides significantly inhibited the phosphorylation
same,Specific Activity + DNA,"DNA-PK [2]; Mouse L-929, P10S",0.0 nmol PO4/min/mg protein
same,Specific Activity − DNA,"DNA-PK [2]; Mouse L-929, P10S",0.0 nmol PO4/min/mg protein
same,Specific Activity + DNA,"DNA-PK [2]; Mouse L-929, S10",0.0 nmol PO4/min/mg protein
same,Specific Activity − DNA,"DNA-PK [2]; Mouse L-929, S10",0.0 nmol PO4/min/mg protein
same,Specific Activity + DNA,"DNA-PK [2]; Mouse SV-Balb/c, P10S",0.04 nmol PO4/min/mg protein
same,Specific Activity − DNA,"DNA-PK [2]; Mouse SV-Balb/c, P10S",0.0 nmol PO4/min/mg protein
same,Specific Activity + DNA,"DNA-PK [2]; Mouse SV-Balb/c, S10",0.06 nmol PO4/min/mg protein
same,Specific Activity − DNA,"DNA-PK [2]; Mouse SV-Balb/c, S10",0.0 nmol PO4/min/mg protein
same,Specific Activity + DNA,"DNA-PK [3]; Human 293-S, P10S",0.04 nmol PO4/min/mg protein
same,Specific Activity − DNA,"DNA-PK [3]; Human 293-S, P10S",0.0 nmol PO4/min/mg protein
same,Specific Activity + DNA,"DNA-PK [3]; Human 293-S, S10",0.01 nmol PO4/min/mg protein
same,Specific Activity − DNA,"DNA-PK [3]; Human 293-S, S10",0.0 nmol PO4/min/mg protein
same,Specific Activity + DNA,"DNA-PK [3]; Human A549, P10S",0.01 nmol PO4/min/mg protein
same,Specific Activity − DNA,"DNA-PK [3]; Human A549, P10S",0.06 nmol PO4/min/mg protein
same,Specific Activity + DNA,"DNA-PK [3]; Human A549, S10",0.0 nmol PO4/min/mg protein
same,Specific Activity − DNA,"DNA-PK [3]; Human A549, S10",0.02 nmol PO4/min/mg protein
same,Specific Activity + DNA,"DNA-PK [3]; Human HPB-ALL, P10S",0.05 nmol PO4/min/mg protein
same,Specific Activity − DNA,"DNA-PK [3]; Human HPB-ALL, P10S",0.04 nmol PO4/min/mg protein
same,Specific Activity + DNA,"DNA-PK [3]; Human HPB-ALL, S10",0.0 nmol PO4/min/mg protein
same,Specific Activity − DNA,"DNA-PK [3]; Human HPB-ALL, S10",0.04 nmol PO4/min/mg protein
same,Specific Activity + DNA,"DNA-PK [3]; Human HeLa-JW, P10S",0.1 nmol PO4/min/mg protein
same,Specific Activity − DNA,"DNA-PK [3]; Human HeLa-JW, P10S",0.0 nmol PO4/min/mg protein
same,Specific Activity + DNA,"DNA-PK [3]; Human HeLa-JW, S10",0.1 nmol PO4/min/mg protein
same,Specific Activity − DNA,"DNA-PK [3]; Human HeLa-JW, S10",0.0 nmol PO4/min/mg protein
same,Specific Activity + DNA,"DNA-PK [3]; Human MRC 5, P10S",0.04 nmol PO4/min/mg protein
same,Specific Activity − DNA,"DNA-PK [3]; Human MRC 5, P10S",0.02 nmol PO4/min/mg protein
same,Specific Activity + DNA,"DNA-PK [3]; Human MRC 5, S10",0.30 nmol PO4/min/mg protein
same,Specific Activity − DNA,"DNA-PK [3]; Human MRC 5, S10",0.11 nmol PO4/min/mg protein
same,Specific Activity + DNA,"DNA-PK [3]; Human Raji, P10S",0.0 nmol PO4/min/mg protein
same,Specific Activity − DNA,"DNA-PK [3]; Human Raji, P10S",0.0 nmol PO4/min/mg protein
same,Specific Activity + DNA,"DNA-PK [3]; Human Raji, S10",0.0 nmol PO4/min/mg protein
same,Specific Activity − DNA,"DNA-PK [3]; Human Raji, S10",0.08 nmol PO4/min/mg protein
same,Specific Activity + DNA,"DNA-PK [3]; Human T98G, P10S",0.0 nmol PO4/min/mg protein
same,Specific Activity − DNA,"DNA-PK [3]; Human T98G, P10S",0.0 nmol PO4/min/mg protein
same,Specific Activity + DNA,"DNA-PK [3]; Human T98G, S10",0.01 nmol PO4/min/mg protein
same,Specific Activity − DNA,"DNA-PK [3]; Human T98G, S10",0.01 nmol PO4/min/mg protein
same,phosphorylation of the peptide by cell extracts (in words),"DNA-PK [3]; all extracts of Example 11, with or without added DNA",None of the extracts phosphorylated the Ser-Glu-Gln peptide (SEQ ID NO: 20) at a significant rate
